Experimental findings from article PMC2528576 are described below.

This assay has as its target respiratory complex IV (S. cerevisiae (endogenous in yeast mitochondria)) (UniProt P00410). Description: co-IP.
Sequence of UniProt P00410 (P00410 whole entry, looked up, one chain of several): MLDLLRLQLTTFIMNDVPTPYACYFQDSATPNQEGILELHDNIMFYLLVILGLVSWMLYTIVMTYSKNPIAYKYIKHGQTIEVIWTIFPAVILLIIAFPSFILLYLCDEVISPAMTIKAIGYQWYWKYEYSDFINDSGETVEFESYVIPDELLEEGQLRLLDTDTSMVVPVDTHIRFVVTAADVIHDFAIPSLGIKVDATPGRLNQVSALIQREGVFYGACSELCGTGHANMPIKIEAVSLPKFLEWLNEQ

The substance “AAC2, the major ADP/ATP carrier (endogenous) (from UniProt P18239 1-318) (natural protein)” showed a percent of the total AAC2 content associated with the respiratory supercomplex of 0.5 to 1%.
